Data set [1] deals with the molecule itself. In words: SEC; Superdex 200 HR 10/50, calibrated with molecular mass standards, 0.5 mL/min; buffer 20 mM Tris-HCl pH 6.7 (methods) or 50 mM NaH2PO4, 150 mM NaCl pH 7.0. On the technique in general: Size exclusion chromatography separates by hydrodynamic size, large species first.
Data set [2] addresses T1, agglutinin-like sequence protein 3 (full-length Als3) on S. cerevisiae cells (C. albicans, UniProt Q59L12 18-1134).
T1 construct: source: S. cerevisiae, overexpressed and surface-presented, on cells
T1 sequence: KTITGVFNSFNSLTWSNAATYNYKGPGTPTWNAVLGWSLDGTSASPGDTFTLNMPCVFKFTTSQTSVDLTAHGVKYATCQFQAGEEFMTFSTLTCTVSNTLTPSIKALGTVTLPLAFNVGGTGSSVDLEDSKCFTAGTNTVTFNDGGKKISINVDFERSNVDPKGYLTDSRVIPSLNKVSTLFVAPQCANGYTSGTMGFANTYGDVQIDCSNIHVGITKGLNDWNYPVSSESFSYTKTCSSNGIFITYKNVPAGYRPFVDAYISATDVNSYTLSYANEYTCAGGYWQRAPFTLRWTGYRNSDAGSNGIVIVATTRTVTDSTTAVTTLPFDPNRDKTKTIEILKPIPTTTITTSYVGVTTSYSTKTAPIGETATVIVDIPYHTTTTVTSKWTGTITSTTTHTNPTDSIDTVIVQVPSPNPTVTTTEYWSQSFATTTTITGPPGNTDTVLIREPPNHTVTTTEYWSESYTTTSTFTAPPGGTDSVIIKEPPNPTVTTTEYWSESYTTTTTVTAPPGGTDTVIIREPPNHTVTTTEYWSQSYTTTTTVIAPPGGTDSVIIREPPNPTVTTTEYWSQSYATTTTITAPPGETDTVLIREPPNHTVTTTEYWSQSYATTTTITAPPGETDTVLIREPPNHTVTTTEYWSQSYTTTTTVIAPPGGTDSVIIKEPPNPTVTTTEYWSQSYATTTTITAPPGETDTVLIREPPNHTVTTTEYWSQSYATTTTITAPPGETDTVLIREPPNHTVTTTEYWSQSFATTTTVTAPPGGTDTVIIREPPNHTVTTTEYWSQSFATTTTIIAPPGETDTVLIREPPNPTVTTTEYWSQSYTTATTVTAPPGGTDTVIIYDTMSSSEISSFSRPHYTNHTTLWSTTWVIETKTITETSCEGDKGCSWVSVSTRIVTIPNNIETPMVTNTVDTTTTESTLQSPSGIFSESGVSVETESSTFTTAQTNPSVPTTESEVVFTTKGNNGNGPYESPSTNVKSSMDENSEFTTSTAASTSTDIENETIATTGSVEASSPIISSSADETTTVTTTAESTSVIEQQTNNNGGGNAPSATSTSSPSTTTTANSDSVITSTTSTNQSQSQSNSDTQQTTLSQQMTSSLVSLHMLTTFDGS
In words: whole-cell binding assay (biotin-labeled protein, SA-HRP/TMB); S. cerevisiae cells presenting the adhesin (3 × 10^7 cells per tube); biotin-labeled CaGAPDH 0–400 nM, 1 h at 37 °C; one-site specific binding model, estimated dissociation constants. The note with it: one partner purified.

For data set [3], the target named is T2, Eap1 (epithelial adhesin protein 1) on S. cerevisiae cells (C. albicans, UniProt G1UBC2 19-632).
T2 construct: Eap1 adhesin of C. albicans presented on the surface of S. cerevisiae; source: S. cerevisiae, overexpressed and surface-presented, on cells
T2 sequence: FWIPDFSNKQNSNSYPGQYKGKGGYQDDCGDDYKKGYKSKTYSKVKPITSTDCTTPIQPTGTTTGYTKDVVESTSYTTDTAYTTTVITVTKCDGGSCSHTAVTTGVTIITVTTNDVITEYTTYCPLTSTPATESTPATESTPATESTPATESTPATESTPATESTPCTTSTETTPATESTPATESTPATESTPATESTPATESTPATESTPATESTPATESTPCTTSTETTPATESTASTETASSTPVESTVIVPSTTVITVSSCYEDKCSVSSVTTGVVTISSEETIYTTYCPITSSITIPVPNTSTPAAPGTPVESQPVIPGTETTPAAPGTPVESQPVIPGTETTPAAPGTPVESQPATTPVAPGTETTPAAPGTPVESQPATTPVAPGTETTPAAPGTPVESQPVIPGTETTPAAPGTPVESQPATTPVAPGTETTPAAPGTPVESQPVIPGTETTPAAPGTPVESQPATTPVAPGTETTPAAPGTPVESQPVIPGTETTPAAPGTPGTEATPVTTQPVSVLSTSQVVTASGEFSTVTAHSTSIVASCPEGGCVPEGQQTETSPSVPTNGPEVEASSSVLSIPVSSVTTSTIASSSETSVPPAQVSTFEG
The data set is described as above. Particulars: one partner purified.

The target of data set [4] is T3, Hwp1 (hyphal wall protein 1) on S. cerevisiae cells (C. albicans, UniProt P46593 28-613).
T3 construct: Hyphal wall protein 1 of C. albicans presented on the surface of S. cerevisiae; source: S. cerevisiae, overexpressed and surface-presented, on cells
T3 sequence: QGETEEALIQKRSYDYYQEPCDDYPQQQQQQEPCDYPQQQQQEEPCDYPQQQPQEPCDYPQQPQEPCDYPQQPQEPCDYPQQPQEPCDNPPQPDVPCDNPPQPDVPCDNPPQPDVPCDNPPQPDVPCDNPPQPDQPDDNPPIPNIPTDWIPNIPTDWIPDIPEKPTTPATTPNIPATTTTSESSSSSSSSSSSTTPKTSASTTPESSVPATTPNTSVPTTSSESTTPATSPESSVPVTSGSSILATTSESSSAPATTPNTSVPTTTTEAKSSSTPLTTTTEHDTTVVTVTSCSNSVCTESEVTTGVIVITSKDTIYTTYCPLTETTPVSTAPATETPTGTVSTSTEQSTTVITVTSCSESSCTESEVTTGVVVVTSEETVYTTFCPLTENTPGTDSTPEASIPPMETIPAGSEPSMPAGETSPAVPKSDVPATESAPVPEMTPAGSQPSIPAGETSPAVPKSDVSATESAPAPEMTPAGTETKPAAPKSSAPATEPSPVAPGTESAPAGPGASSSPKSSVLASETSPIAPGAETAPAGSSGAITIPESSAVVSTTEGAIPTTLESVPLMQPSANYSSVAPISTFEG
The description is as above. The note with it: one partner purified.

Several values for one entry are separate records, joined by “and”; a condition that tells them apart may be missing. Equal entries are not always repeated.

B1: recombinant Candida albicans glyceraldehyde 3-phosphate dehydrogenase (enzyme, C. albicans, UniProt Q5ADM7 1-335, looked up)
chain: MAIKIGINGFGRIGRLVLRVALGRKDIEVVAVNDPFIAPDYAAYMFKYDSTHGRYKGEVTASGDDLVIDGHKIKVFQERDPANIPWGKSGVDYVIESTGVFTKLEGAQKHIDAGAKKVIITAPSADAPMFVVGVNEDKYTPDLKIISNASCTTNCLAPLAKVVNDTFGIEEGLMTTVHSITATQKTVDGPSHKDWRGGRTASGNIIPSSTGAAKAVGKVIPELNGKLTGMSLRVPTTDVSVVDLTVRLKKAASYEEIAQAIKKASEGPLKGVLGYTEDAVVSTDFLGSSYSSIFDEKAGILLSPTFVKLISWYDNEYGYSTRVVDLLEHVAKASA
modifications: biotin (NHS-biotin) in the microplate and yeast-cell binding assays; Alexa Fluor 647 in flow cytometry
notes: no tag (pLATE11); By gel filtration predominantly a tetramer, with marked proportions of dimers and monomers; The forward primer carries ATGATG (the vector adapter's ATG and the gene's own), so an extra N-terminal Met may be present; also called CaGAPDH; GAPDH; source: E. coli Rosetta 2 (DE3), pLATE11, purified (ammonium sulfate fractionation, ResourceQ)
On to B1, for which the “stoichiometry N” value in data set [1] was 4 and 2. Besides, the results for the equilibrium dissociation constant (Kd) in data set [2], in data set [3] and in data set [4] were 95.9 nM, 1250 nM and 715 nM, respectively.

The term stoichiometry N denotes the number of molecules, sites or subunits per partner or assembly. As usually defined, the Kd is the concentration at which binding is half-saturated.

Source of the values: article PMC10815899, “Glyceraldehyde 3-Phosphate Dehydrogenase on the Surface of Candida albicans and Nakaseomyces glabratus Cells—A Moonlighting Protein That Binds Human Vitronectin and Plasminogen and Can Adsorb to Pathogenic Fungal Cells via Major Adhesins Als3 and Epa6” (International Journal of Molecular Sciences, 2024).
